Assay results from US20170146535A1 (SPRING BIOSCIENCE, published 2017).
Positions count from the first letter of the chain named.

B1: J6H15L16 antibody (antibody, V domains shown)
VH: QEQLVESGGGLVQPEGSLTLTCTASGFSFSTNYWICWVRQAPGKGLEWTACIYIGGRGSIYYASWAKGRFTISKTSSTTVTLQMTSLTAADTATYFCARDLTTAYGATDLRFWGPGTLVTVSS
VL: DVVMTQTPSPVSAAVGGTVSISCQSSQSVGDNNRLSWFQQKPGQPPKLLIYSASTLASGVPSRFKGSGSGTEYTLTISGVQCDDAATYYCLGEFSGSDEDVFGGGTEVVVK
notes: the constant regions are not
B2: anti-IDO1 antibody SP260 (antibody, V domains shown)
VH: B1 VH with I54V
VL: B1 VL
notes: the constant regions are not
B3: J6H12L16 antibody (antibody, V domains shown)
VH: B1 VH with Q13R
VL: B1 VL
notes: the constant regions are not
B4: J6H20L16 antibody (antibody, V domains shown)
VH: B1 VH with F96S
VL: B1 VL
notes: the constant regions are not

Target: human indoleamine 2,3-dioxygenase 1 (IDO1) (human, UniProt P14902 1-403)
Sequence (P14902 whole entry): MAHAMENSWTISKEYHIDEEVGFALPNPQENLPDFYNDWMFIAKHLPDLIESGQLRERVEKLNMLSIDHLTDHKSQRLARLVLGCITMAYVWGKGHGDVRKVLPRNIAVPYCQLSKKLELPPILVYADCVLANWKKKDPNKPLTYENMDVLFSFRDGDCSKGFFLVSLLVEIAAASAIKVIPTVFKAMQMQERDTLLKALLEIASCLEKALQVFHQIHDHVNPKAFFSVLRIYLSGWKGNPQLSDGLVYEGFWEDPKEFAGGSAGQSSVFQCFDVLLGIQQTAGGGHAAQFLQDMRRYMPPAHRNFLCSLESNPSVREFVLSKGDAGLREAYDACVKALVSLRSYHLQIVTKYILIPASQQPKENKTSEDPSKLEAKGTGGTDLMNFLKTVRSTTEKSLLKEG
Test: IHC on FFPE HeLa cells (untreated or IFN-gamma treated) and FFPE human tissues
Procedure: The anti-IDO1 antibodies generated in Example 1 were used in further IHC analyses. For IHC analyses, tissue sections were incubated with the antibodies for 16 min followed by standard washes and secondary detection with Optiview DAB IHC Detection Kit (Ventana Medical System, Inc., Tucson, Ariz.). The specificity of each antibody was assessed on formalin-fixed, paraffin-embedded (FFPE) cells with different IDO1 expression levels (human cervical cancer HeLa cells that are either untreated as control (negative) or treated with interferon-γ (high expression); see FIGS. 2A-2b) or from different tissue types (Tonsil, Thymus, Colon, Endometrial adenocarcinoma, Ovarian adenocarcinoma, Pancreatic adenocarcinoma, and Stomach adenocarcinoma; see FIGS. 3A-3G).

binding result | Binder
binds | B1
binds | B2
binds | B3
binds | B4
